By EC50 is commonly meant the concentration at which the effect is half-maximal. As a reminder, the Kd is the constant that tells how readily two partners part at equilibrium. For orientation: koff means the rate constant with which the complex falls apart.

Residue numbers refer to the chain shown, from its start.

Data on ten molecules can be found in patent US20190367619A1 (ARGENX, published 2019).

T1: human galectin-10-His (recombinant human galectin-10 with TEV-cleavable N-terminal His-tag) (human)
T1 construct: SEC-MALLS: dimer in solution; also called Gal10-His; humanGal10-His
T1 chain: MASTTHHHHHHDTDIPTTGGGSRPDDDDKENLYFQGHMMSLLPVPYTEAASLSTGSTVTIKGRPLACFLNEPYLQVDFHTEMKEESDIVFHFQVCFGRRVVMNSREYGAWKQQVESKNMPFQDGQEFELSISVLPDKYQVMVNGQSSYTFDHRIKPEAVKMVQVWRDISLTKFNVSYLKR

T2: TEV-cleaved wild-type recombinant human galectin-10 (soluble, in Fab complexes, or as recombinant galectin-10 … (human, UniProt Q05315 1-142))
T2 sequence: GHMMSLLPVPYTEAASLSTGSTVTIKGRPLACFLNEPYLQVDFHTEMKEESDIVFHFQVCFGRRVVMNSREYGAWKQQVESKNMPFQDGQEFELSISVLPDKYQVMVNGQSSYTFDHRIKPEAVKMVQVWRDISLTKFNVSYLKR

T3: recombinant human galectin-10, TEV-cleaved (human, UniProt Q05315 1-142)
T3 sequence: T2 sequence

T4: human galectin-10-His (human)
T4 construct: The last M of the tag may be Met1 of galectin-10; also called humanGal10-His; hGal10
T4 chain: T1 chain

B1: 2C07 scFv-human Fc (Fc fusion)
scFv: ELQLVESGGGLVQPGGSLRLSCAASGFTFSSYAMSWVRQAPGKGLEWVSNINSGGGSTGYADSVKGRFTISRDNAKNTLYLQMNSLKPEDMAVYYCAKYLRTYYPNAAFGMDYWGKGTLVTVSSGGGGSGGGGSGGGGSQAVLTQPSAVSVSLGQTARITCQGGNFGRYYASWYQQKPGQAPVLVIYRDSERPSGIPERFSGSSSGDTATLTISGAQAEDEADYYCQSGRSSDNAVFGGGTHLTGL
notes: about 100 kDa on SDS-PAGE; also called 2C07 ScFv-hFc; not shown: CH2-CH3 constant domains of human IgG1 (vector pUPEX50)
B2: 7B07 Fab (Fab, V domains shown)
VH: QVQLVESGGGLVQPGGSLRLSCAASGFTFRSYDMSWVRQAPGKGPEWVSAIKNGGGITYYADSVKGRFTISRDNAKNTLYLQMNSLKPEDTAVYYCATTHGIGTLGFGSWGQGTQVTVSS
VL: SYELTQSASVSVALTQTAKITCDGNNIGSKSAQWYQQKPGQAPALVIYADEYRPEGIPERFSGSNSGNTATLIISGAQAEDEADYYCQVWDGSAAVFGRGTHLTVL
notes: Fab with human CH1 (including part of the hinge region) and human lambda constant domain; also called 7B7; 7B07 hFab
B3: 10A06 Fab (Fab, V domains shown)
VH: QVQLVESGGGLVQPGGSLRLSCAASGFTFGNYDMSWVRQAPGKGPEWVSDINSGGGSTYYADSVKGRFTISRDNAKNSLLLQMNSLKPEDTAVYYCATGYTGYYYWGQGTQVTVSS
VL: QTVVTQEPSLSVSPGGTVTLTCGLSSGSVTSSNYPAWYQQTPGQAPRALIYSINSRHSGVPDRFSGSISGNKAALTITGAQAEDEADYYCTLYMGTGSNNVVFGGGTHLTVL
notes: Fab with human CH1 (including part of the hinge region) and human lambda constant domain; also called 10A06 hFab
B4: 8H11 Fab (Fab, V domains shown)
VH: ELQLVESGGGLVQPGGSLRLSCAASGFTFSTNYMNWVRQAPGKGLEWVSGITSGGGRTYYADSVKGRFTISRDNAKNTLYLQMNSLKPEDTALYYCARTDHAWLDAWGQGTLVTVSS
VL: QAGLTQPPSVSGTLGKTVTISCAGTSSDVGYGNYVSWYQQLPGTAPKLLIYAVSTRASGIPDRFSGSKSGNTASLTISGLLSEDEADYYCASYRSSNNYVFGGGTKLTVL
notes: Fab with human CH1 (including part of the hinge region) and human lambda constant domain; also called 8H11 hFab
B5: 11F02 Fab (Fab, V domains shown)
VH: B4 VH with L4V, G54H, G56A, A75S, W103S
VL: QTVVTQEPSLSVSPGGTVTLTCGLSSGSVTSSNYPGWYQQKPGQAPRTLIYNTNSRYSGVPNRFSGSISGNKAALTITGAQPEDEADYYCALYMGSSSYNTVFGGGTHLTVL
notes: Fab with human CH1 (including part of the hinge region) and human lambda constant domain; also called 11F02 hFab
B6: 11F12 Fab (Fab, V domains shown)
VH: B4 VH with E1Q, L2V, V5Q
VL: HSAVTQPPSVSGTLGKTVTISCAGTSSDVGYGNYVSWYQHLPGTAPKLLIYAVSTRASGVPDRFSGSKSGNTASLTISGLQSEDEGDYYCASYSVRNNVVFGGGTRLTVL
notes: Fab with human CH1 (including part of the hinge region) and human lambda constant domain; also called 11F12 hFab
B7: 10B02 Fab (Fab, V domains shown)
VH: QVQLVESGGGLVQPGGSLRVSCAASGFTFSYHYMNWVRQAPGKGLEWVSGISAGGGRTYYADSVKGRFTISRDNAKNTLYLQMNSLNAEDTALYYCARVHGITNDYWGQGTQVTVSS
VL: QSALTQPPSVSGSPGKTVTISCAGTSSDVGYGNYVSWYQQLPGMAPKLLIYEVNKRASGITDRFSGSKSGNTAFLTISGLQSEDEADYYCASYRNSNNWVFGGGTHLTVL
notes: Fab with human CH1 (including part of the hinge region) and human lambda constant domain; also called 10B02 hFab
B8: 1D11 Fab (Fab, V domains shown)
VH: QVQLVESGGGLVQPGGSLRLSCAASGFTFDDYAMSWVRQAPGKGLEWVSGISWNGGSTYYAESMKGRFTISRDNAKNTLYLQMNSLKSEDTAVYYCAKDRNLGYRLGYPYDYWGQGTQVTVSS
VL: B7 VL with A3V, K16E, K47R, F74S, A86G, N95S, W99A
notes: Fab with human CH1 (including part of the hinge region) and human lambda constant domain; also called Fab-1D11; 1D11 hFab
B9: 10D02 Fab (Fab, V domains shown)
VH: EVQLVESGGGLVQPGGSLRVSCAASGFTFSSYYMSWVRQAPGKGLEWVSGIVTGGGRTHYTDSVKGRFTITRDNAKNTLYLQMNSLRPEDTALYYCARVNGVVTNYDYWGQGTQVTVSS
VL: B7 VL with S2A, A3V, E52D, F74S, Y89F, N95S, S96P, W99V, G103Q
notes: Fab with human CH1 (including part of the hinge region) and human lambda constant domain; also called 10D2; 10D02 hFab
B10: 6F05 scFv-human Fc (Fc fusion)
scFv: QLQLVESGGGLVQPGGSLRLSCAASGFTFSSYAMSWVRQAPGKGLEWVSAINSGGGSTSYADSVKGRFTISRDNAKNTLYLQMNSLKPEDTAVYYCATPGDRLWYYRYDYWGQGTQVTVSSGGGGSGGGGSGGGGSQAGLTQPPSVSGTLGKAVTISCAGTSSDIGYGNYVSWYQQLPGTAPKLLIYKVSRRASGVPDRFSGSKSGNTASLSISGLQSEDEADYYCASYRYRNNVVFGGGTHLTVL
notes: Positive control from the first panel; also called 6F5; not shown: CH2-CH3 constant domains of human IgG1 (pUPEX50 scFv-Fc fusion vector)

One test deals with T1, human galectin-10-His (recombinant …). The experiment in a line: ELISA, scFv-hFc on coated galectin-10-His (0.2 ug/mL). As for the experimental part:
In a similar setup to that used during the initial screening, the relative binding properties of the 12 scFv-human Fc clones were analyzed by ELISA. Briefly, a Maxisorp plate was coated with galectin-10-His at 0.2 μg/mL and blocked with casein, before being incubated with a serial dilution of the scFv-human Fc fusion molecules. After several washing steps, detection of the bound scFv-human Fc was carried out with an anti-human Fc-HRP antibody. Absorbance was measured at 450 nm (reference at 620 nm) with Tecan instrument. Finally, the raw data (OD values) were plotted on GraphPad Prism 7.01. The EC50 value of each compound was calculated with a non-linear regression (log(agonist) vs. response Variable slope (four parameters)).
Take B1: the “Bmax (OD values)” value was 2.89 OD and the EC50 was determined as 0.05 nM.

The target of a further test is T2, TEV-cleaved wild-type recombinant human …. The experiment in a line: cell-based or functional assay.
On to B1, for which the “100% Solubilization of CLC (Conc uM)” value was determined as 6.86 µM.

For another test, the target named is T3, recombinant human galectin-10, …. Description: cell-based or functional assay.
Turning to B2, the “50% crystal dissolution (min), 50 uM” value came to 15.1 min and the “90% crystal dissolution (min), 50 uM” value worked out at 54.1 min.
The like results for B3 were, in that order, 49.1 min and over 120 min.
The matching figures for B4: 48.5 min and over 120 min.
With B5, the “50% crystal dissolution (min), 50 uM” value amounted to 77.9 min and the “90% crystal dissolution (min), 50 uM” value is over 120 min.
The like results for B6 were, in that order, 62 min and over 120 min.
The like results for B7 were, in that order, 102 min and over 120 min.
The like results for B8 were, in that order, 33.4 min and 97.8 min.
In the case of B9, the “50% crystal dissolution (min), 50 uM” value was 59.7 min and the “90% crystal dissolution (min), 50 uM” value was over 120 min.

A further test concerns the target T1, human galectin-10-His (recombinant …). The experiment in a line: SPR Biacore T3000, scFv-hFc captured by anti-human Fc, galectin-10-His as analyte. How it is done: In order to determine the binding properties (on-rate/off-rate) of the scFv-human Fc panel, their binding capacity to galectin-10 was analyzed on Biacore T3000. For this purpose, a capture approach was set up. A CM5 Chip was coated with polyclonal anti-human Fc at 8000 RU, then a fixed concentration of the scFv-human Fc panel (1.5 μg/mL), diluted in HBS-EP pH7.4, were captured to reach a binding signal around 150 RU. Finally, a serial dilution of galectin-10-His (serial dilution, 1 over 2 from 5 μg/mL, 6 points of dilution) diluted in HBS-EP pH7.4 was injected. Raw data were analyzed via BIA evaluation software with a blank subtraction (4-3). The kd/KD and Rmax of each scFv-human Fc for galectin-10-His was determined using the Fit Kinetics simultaneous ka/kd/Binding with mass transfer/Local Rmax on BIA evaluation software.
For orientation: Surface plasmon resonance follows binding to a sensor surface in real time, without labels.
B1: the Kd worked out at 0.677 nM and the koff came to 0.000259 s⁻¹.

In another test the target is T4, human galectin-10-His. Description: ELISA, galectin-10-His coated at 1 ug/mL, Fab. How it is done:
The binding capacity of the lead anti-galectin-10 Fabs was tested by binding ELISA. Briefly, a Maxisorp plate was coated overnight with 1 μg/mL of human galectin-10-His. Then a serial dilution of each clone (from 4 μM, dilution 1/4, 12 points of dilutions) was incubated on coated galectin-10. After several washing steps, detection of the bound Fab was carried out with an anti-human IgG Fab specific-peroxidase. Absorbance was measured at 450 nm (reference at 620 nm) with Tecan instrument.
(In general: ELISA stands for enzyme-linked immunosorbent assay.)
Consider B2, for which the Bmax came to 0.65 OD and the EC50 stood at 24.4 nM.
For B3, the Bmax is 0.36 OD and the EC50 amounted to 89.5 nM.
In turn, B4 came in with a Bmax of 0.95 OD and an EC50 of 24.3 nM.
B5 came in with a Bmax of 0.46 OD and an EC50 of 81.4 nM.
In the case of B6, the Bmax was determined as 1.38 OD and the EC50 was found to be 22.4 nM.
B7: the Bmax is 0.74 OD and the EC50 came out at 61.2 nM.
The like results for B8 were, in that order, 1.59 OD and 1.4 nM.
In turn, B9 returned a Bmax of 1.03 OD and an EC50 of 16.1 nM.

In the next test the target is T4, human galectin-10-His. Description: ELISA, coated antigen 0.2 ug/mL. As for the experimental part:
In a similar setup to that used during the initial screening, the relative binding properties of the 11 new scFv-human Fc clones were analyzed by ELISA. Briefly, a Maxisorp plate was coated overnight with human or cynomolgus WGS or YRT isoforms of galectin-10-His at 0.2 μg/mL and blocked with PBS 1% casein, before being incubated with a serial dilution of the scFv-human Fc fusion molecules (from 100 nM, dilution 1/5, 8 points of dilutions). After several washing steps, detection of the bound scFv-human Fc was carried out with an anti-human Fc-HRP antibody (Jackson ImmunoResearch, Catalog 109-035-008). Absorbance was measured at 450 nm (reference at 620 nm) with Tecan instrument. Finally, the raw data (OD values) were plotted on GraphPad Prism 7.01. The EC50 values of each clone, calculated with a non-linear regression (log(agonist) vs. response Variable slope (four parameters)) are reported in Table 19 below. As a positive control, clone 6F05 from the previous galectin-10 antibody panel was included.
Molecule B10 showed a Bmax of 2.4 OD and an EC50 of 0.02 nM.
